{"source": "a protein production outcome set (Wang et al. 2014)"}
{"experiment": "label from the status in PepcDB records"}
{"sequence": "MSEQNEKEGAVGSLERGLLIIRVLLDAPGPMSLAELAQELALGPSTVHRLLGTLTKLGQVVREPRGKRYLAAPQVLASLSFQHPITLVRLACRSAIEELRERTGETSAFVLFIGYERLVQDFVIGQRLLSPNYQTWLRSPMHGSASGKLLLSTVPENNWVDLIGHEPYQAHTPSTITTYEEMVAEIQAIRRQHYCVSKNEGYEGVSAFGYPVVVLGKTVGCITLTVESASLNESREAFLIQEMLRCVKSIQAVSGSLKLLHDWLF", "protein production": "failed"}
{"sequence": "MSERPVQSKLNNALNILKQGDLRGSYAELERLLRDDLENAEIDYTLKGVRFWEDKLEKAKKASTPLERAEMMISQWKPFLAYIHRQGEEKESIIYSLKCAVFTIALEFYADLFNEESELPDAEPYRKIGLCYKVLGNYERALDFLRYAAEIDKNSGSVLADLADCYALYGEIKFAKAFFREAFFIDPEGIELQFLESEIICRLINRVYNLGYRVEDIADWLPIYGVIDGVFNVKRELRAFEVGQLKQNIFLMEGEVQNASQEQKHKLVPRLINHYFWLIDHYVSVNESKSKIDDLLLRIKVLDQNIYNCYMR", "protein production": "failed"}
{"sequence": "MSESLDFSPYLERWALQPDGEPFATHSSRLLPVRHRGAAAMLKISSAEEERFGHVLLNWWDGQGAARVLAYDHQALLMERATGGRSLLEMVRRGDDDEATRILCQAIERIHAPRPGPLPELTPLERWFDSLYAAERRYGGLYVDCANAARYLLETAREQRPLHGDIHHGNVLDFGERGWQVIDPKRLYGERGYDYANLFTNPDAKTAQAPGRFERQLEIVIAASGLQRRRLLQWILAWTGLSAAWFDEDGSREETEAELAIARLALANLARTPAQ", "protein production": "failed"}
{"sequence": "MSESPTAGRASLAPLREFITGLSALLDEQPGEARILREGGALLARLVARDDWLPDAFAQPHPEYYQQMLLHCDSAERFSIVSFVWGPGQRTPIHDHTVWGLIGMLRGAEYSQPFVLDGSGRPVLHGEPTRLEPGHVEAVSPTVGDIHRVHNAYDDRVSISIHVYGANIGGVRRSVYTEAGERKPFISGYSNPYLPNPWDRSKDSAAS", "protein production": "not failed"}
{"sequence": "MSETERTLVIIKPDAVVRGLIGEIISRFEKKGLKIVGMKMIWIDRELAEKHYEEHREKPFFKALIDYITKTPVVVMVLEGRYAVEVVRKMAGATDPKDAAPGTIRGDFGLEVSDAICNVIHASDSKESAEREISLFFKPEELFEYPRAADWFYKKGI", "protein production": "not failed"}
{"sequence": "MSETPERGLGSRAGVVLVDRYRLDERIGVGGMGEVWRATDILLSRPVAVKLLHLAQVSDPVSQQRFRTEAQITAALSHPNIAQVYDYGEQDGFSFLVMELITGESLSAIIKRNPGLDPDITLDVVDQAAQALSAAHANGVIHRDIKPGNLLVTEDGTVKLTDFGIARGNESVTLTQTGMVMGTAQYISPEQVSGKPASPLSDIYALGIVAYECLAGHPPFTADTPLALALAHSREPPPPLPDSVPPAVRELVECMLAKDPQERPSSAAEVSQWAQRLRAALNGGDATEALGLVSATAATAVVPAQPGPPTGDSTPVDGPHSGAQAQTWPPPQGKDSDRVAERSAAPNSRLNLPVVFALIATVGAVAVGIFLVGLLGKEPGTNGTPTSHRSVVPTLSRSPDTTENITTDSQTPVPDNPGGQLPPLNDEPEESYSPAPHPEPTTPPQSEYPSPPGDGADSTPDPGEEPGGPSDEDDADGGGAAPGGPTGGTGEESRGSTPP", "protein production": "failed"}
{"sequence": "MSEVILDIMNNELVSSLILRELIQYRRRFTHSTKSVSEEESQVTQVQLPRIRTFVDEGRRVELILPAFPVKSPSPYKVLGRMPDMAERLSLIFLNSLCQRIQLYYPPGAHIRICSDGHVFGDLIGTSDETINTYQDEIENLLHELGAVHLSVFNLKDVENMAALTADYGHLRQRLVEDYAESAEEIKEQLMQSEEGLQLYRSITRFLYEDSLRPDYTGSNAALQKDAKKRACGVIQRSWAWGNLLAENFPDAIRLSIHPQPADSLKLGIHMMPTKDDWLTPWHGVAANVNGQFVLMKNTDAQQLAGEVVEIRGTPSHYLVKQSDVA", "protein production": "failed"}
{"sequence": "MSEVKKTKVHLISGFLGTGKTTALKSLMAQKDPNEKWVIIVNEFGEIGIDGAVLSDNGIPVAEIAGGCLCCTAGPQMGVTVQKMLRDAKPDRLMIEASGLAHAASVIDELKAKPLDSLLEIGAVFTVVDPRQFINPDYAQQALYKDQIGICDVLAASKTDLCTPEQLAEFHDKAAKLFPPKAKVVEVQNAQLDIQWLDIPVVEKSRYRLKALPDNTMGFQSQGFTFPAGRDFNGEKLTNFFNDLPKMTEGLVRAKGVFQVLGTWVWLNWVDGQWGANQVSWRRDSRFELIAKSFDADLIEQKLKDALELEHHHHHH", "protein production": "not failed"}
{"sequence": "MSEVQITFRKAREQDLMTYFNWANDEVTRKNSFGTNKIDLKTHTEWFLKKISSPDSLLLVFEDAAKIPVGQVRIECGEEEAVIGISIDSAFRGKSLSAFMIDSACTEYFRNFTKPIAAHIKATNTASVKAFEKAGFILKEEYTVDQELRFILLRQHV", "protein production": "failed"}
{"sequence": "MSFFKLKENNTSFKTEVIAGLTTFLAMVYIIPVNSSIVGNTGMPIEALITATALITIVASAFNAFFANTPVAMSVGMGLNAYFTFAVCLGQNIAWQSALGAVFISSIIFLILSFTHFRLWVIRNIPKDLRLAICAGIGCFIAFLGLSQMGVIMHNKDTLVSIGNFKSPHVLFGIFTLALIIFFWAIKLLGAFILGVLASSIIAWIFHLDNASFPVQIFSWPNFSMENGLGAIFLQLDIKSALNITMIPIILTFFITQLFDSIGTITGVGERGKIFDDPKNGEKKLSKTLMADATGSALGAMTGTSTVTAFVESTTGVESGGRTGLTALVVAICFAFTLFLLPLFKAIPANAIYPVLVMVGILMFMEVKNIDFKDSAIAVASFFTIIMMPFTYSITTGFAFGFLSYLLVRIFKREWDKINLGIIVLSLLSLGNFLLMALQ", "protein production": "failed"}
{"sequence": "MSFIVCMSVLGVLLMLLALTSSYLRWMPVTTSAVCLAFGFGIGPLGLDIINLDFKQSREWLECLTEVAVLFSLFGTGIKLRLPLNCKAWHSAYWLAGPVMLATIAGVSVAAHYIFAIDWGVALLLGAMLSPTDPVLAGMVQVNSAQDQDRLRFGLSGEAGLNDGTAFPFVIFAMLYLSSGGVTGDWAQHWLLKDLIWAVPAGLLIGFGMGRGVGHLMIFLRIKNADSTTSPNDFLALALIALAYVVAEGFGAFGFLSVFAAGFGLRQAEMRVTRSELPSEHVAQPVLGHMTAALDQGTVAKADDLSDSQLAAGVMMGDMLAFGSLVERAMEVLLITLLGAALASYWDWRAIGLGLALFCVIRPASVWLLVSQKLLNARQKALVGWFGIRGIGSLYYLCFALSHGLADDVGNVVIGMTLSVVALSILLHGISIQPLLERYERSTAANPDK", "protein production": "failed"}
{"sequence": "MSFVKKTKNFFGLDGEADPYMEHSDAYYDEPRYEPAPAYSAPRYEEPIYASARPRAARPMPTHIVPVRLLTYSDAAIKVGDPFRDGDAVVFDMSDMHKGEAKRIIDFAAGLCFALRGQMRKLDGRIFALVPESASVDENDLKHAAGLIHLEHHHHHH", "protein production": "failed"}
{"sequence": "MSGADTKKKLVGRHKRVAFMDVAGDGKTYTRMTGFTSMSESKNASEYSRHYVDEESERTDVVGYAPSNDYEFDRYTNDLVQQKISEITDDELLGSDAQVSIVVVDLFDIKTDTPNTCVARKRDWSVVPDNSGDGTDALIYKGSLKANGEKIKGTATTTDNWQTCTFAAD", "protein production": "failed"}
{"sequence": "MSGGPVKTPFLSFIIPAYNEEQRLPSYLERVIGFFAGQSYSFEIVVVDDGSSDGTAALVKALMAQHSCLRLEALDRNRGKGFAVKTGMSAAKGQLRVFADADGATPVEEIRRLLDAREQGADIAIGSRAMRSDECIVQGRVHRKIMGTVFNGLIRALAVRGIHDSQCGFKLFTASAAEDIFPRQRITGFGFDVELLFLARRLGYVVVEVPVNWSDVEGTKVRLVRDSFRMLGEVLRIRFTNLTGGYGDIPGKTLEHHHHHH", "protein production": "failed"}
{"sequence": "MSGIIATYLIHDDSHNLEKKAEQIALGLTIGSWTHLPHLLQEQLKQHKGNVIHVEELAEHEHTNSYLRKKVKRGIIKIEYPLLNFSPDLPAILTTTFGKLSLDGEVKLIDLTFSDELKKHFPGPKFGIDGIRNLLQVHDRPLLMSIFKGMIGRNIGYLKTQLRDQAIGGVDIVKDDEILFENALTPLTKRIVSGKEVLQSVYETYGHKTLYAVNLTGRTFDLKENAKRAVQAGADILLFNVFAYGLDVLQSLAEDDEIPVPIMAHPAVSGAYSASKLYGVSSPLLLGKLLRYAGADFSLFPSPYGSVALEKEEALAISKYLTEDDASFKKSFSVPSAGIHPGFVPFIVRDFGKDVVINAGGGIHGHPNGAQGGGKAFRTAIDATLQNKPLHEVDDINLHSALQIWGNPSYEVKL", "protein production": "not failed"}
{"sequence": "MSGKTSITSRSDEFQRQIDHKEMPRDHQIERHTHIHTTRYRGGSLVEEVIEKLERFKVRTVNILVGGEDDEQKK", "protein production": "failed"}
{"sequence": "MSGLAQRSDDPWLAALPAAVLYGAWAAYANQDGGLAGMGVAALLQGAASLLATRFGLYLLQCLGRRHGLAQRQAPLLVVLLLTAPMAALHWLSGTPHPLASVAPSFVIGWLYFALWARRRPGRRQASGA", "protein production": "failed"}
{"sequence": "MSGLVTGREIVQTARDENVPFMGASIAYYAIASIVPLLALLLAALSTFGGTVTLLELLRTVLSENGQVILTELLENTRGHGATGTLSLVLVVWSGSKVFRSLSVAFTEVYGEVTDISLPAQLVRSAVVMGVLLGAVVFLSATSVALTYVKFQVPYPTLVGNVAAFAALGVAFVPIYYVLPPVKTSLTHVAPGALFAAAGWITIQVGFFYYAGTAGRYAAYGYLGALLLFVTALYLAAIVLLLGVVVNATLDW", "protein production": "failed"}
{"sequence": "MSGMSAAARWTLIASVIAGVSYVASWGLTLPPGVETAWKGAGVGLLAIHAALRARSLDGWLLAAVMALGTGGDVLLETHGLTVGAISFLLGHVVASGLYLRHRNAVSLAPLALIPVVVAVSFLLPTDRAGAPGIALYSLFLAVMAAMALMSRFPFKTVGLGALMFVVSDLLIFGRLGPLPDNLATGLGVWGLYYFGQLLICLGVAGALAHPSTDLPGEGRGPDSA", "protein production": "failed"}
{"sequence": "MSGPERLLTRAPTHRPERPRLTLVSRRVMRTIGWLLLLIGGLAGGLSSAAGQPSAPPDTIRGDAVAPSPAPASGDLAGQGGALEATPLFYVAEDAATLHNRSGLNAPVTRLAMRTPVRRLSCEADWCRVRTDGGTTGYVAADALSNVWIRVSKRKRRVYVYRGAELAHAFEADMAYNAFADKKRNGGKTRPDHWRTPEGTFYVVHKNPQSEFYKALVLNYPKVEDARRGLDAGLISRAQYEAIRQAQQEHRMPPMGTDLGGWIEIHGDGTGDATAWTQGCVAIRNGAMDVIWEQVRVGTPVLIE", "protein production": "failed"}
{"sequence": "MSGPRAGFYRQELNKTVWEVPQRLQGLRPVGSGAYGSVCSAYDARLRQKVAVKKLSRPFQSLIHARRTYRELRLLKHLKHENVIGLLDVFTPATSIEDFSEVYLVTTLMGADLNNIVKCQAGAHQGARLALDEHVQFLVYQLLRGLKYIHSAGIIHRDLKPSNVAVNEDCELRILDFGLARQADEEMTGYVATRWYRAPEIMLNWMHYNQTVDIWSVGCIMAELLQGKALFPGSDYIDQLKRIMEVVGTPSPEVLAKISSEHARTYIQSLPPMPQKDLSSIFRGANPLAIDLLGRMLVLDSDQRVSAAEALAHAYFSQYHDPEDEPEAEPYDESVEAKERTLEEWKELTYQEVLSFKPPEPPKPPGSLEIEQ", "protein production": "failed"}
{"sequence": "MSGQTFEKIGGMFLDKQRKEGKSKATLDKTAYHLKLANHDFGKKPITAITAPMILRTLRKVEAKGNYETAHRLRARIGSVFRYAVASGLAETDPTYALRDALIRPTRQHLEHHHHHH", "protein production": "failed"}
{"sequence": "MSGRHLMYLDYLVPSWHEIESRVIAMVGYQSGGQFRTSLNEEVASLGLNLRRIEAVRTAFYHAEWQAAHMLRQRFADLDINSIIDELLRVVQQMAMIVVGSTITGGLLGATVGAFAGGAGTIPLAGAGAVMGLKVSGWILGALGLASIAEFFVEGLPRIGG", "protein production": "failed"}
